B1: H2-Kb / H6 (parent)
chain 1: AQKVTQTQTSISVMEKTTVTMDCVYETQDSSYFLFWYKQTASGEIVFLIRQDSYKKENATVGHYSLNFQKPKSSIGLIITATQIEDSAVYFCAMRDYNQGKLIFGQGTKLSIKP
chain 2: EAAVTQSPRSKVAVTGGKVTLSCHQTNNHDYMYWYRQDTGHGLRLIHYSYVADSTEKGDIPDGYKASRPSQENFSLILELASLSQTAVYFCASSGTAANSDYTFGSGTRLLVI
chain 3: not shown
chain 4: IQKTPQIQVYSRHPPENGKPNILNCYVTQFHPPHIEIQMLKNGKKIPKVEMSDMSFSKDWSFYILAHTEFTPTETDTYACRVKHDSMAEPKTVYWDRDM
chain 5: SIINFEKL
B2: H2-Kb / G2 (parent)
chain 1: GEQVEQRPPHLSVREGDSAVIICTYTDPNSYYFFWYKQEPGAGLQLLMKVFSSTEINEGQGFTVLLNKKDKQLSLNLTAAHPGDSAVYFCAVRTNQGGRALIFGTGTTVSVSP
chain 2: EAAVTQSPRSKVAVTGGKVTLSCHQTNNHDYMYWYRQDTGHGLRLIHYSYVADSTEKGDIPDGYKASRPSQENFSLILELASLSQTAVYFCASSGTDTEVFFGKGTRLTVV
chain 3: not shown
chain 4: B1 chain 4
chain 5: SIINFEKL
B3: H2-Kb / B16 (parent)
chain 1: QQQVRQSPQSLTVWEGGTTVLTCSYEDSTFNYFPWYQQFPGEGPALLISILSVSDKKEDGRFTTFFNKREKKLSLHIIDSQPGDSATYFCAARGSALGRLHFGAGTQLIVIP
chain 2: EAAVTQSPRSKVAVTGGKVTLSCHQTNNHDYMYWYRQDTGHGLRLIHYSYVADSTEKGDIPDGYKASRPSQENFSLILELASLSQTAVYFCASSDGTNQAPLFGEGTRLSVL
chain 3: not shown
chain 4: B1 chain 4
chain 5: SIINFEKL

Variants of: B1
Assay: % of reporter cells activated (NFAT-GFP), raw
Details: with H6; scale: % of reporter cells activated
Also: test concentration or dose not given here.

Ratio to parent: each site, then its substitutions
chain 5 L8: W 0.248 | C 0.28 | R 0.406 | M 0.538 | Y 0.729 | H 0.825 | A 0.199 | D 0.209 | Q 0.131 | N 0.433 | S 0.129 | F 0.32 | E 0.214 | T 0.521 | I 0.888 | K 0.13 | V 0.537 | P 0.26 | G 0.36
chain 5 K7: G 0.072 | Y 0.162 | M 0.188 | W 0.129 | C 0.125 | I 0.231 | T 0.111 | S 0.0877 | V 0.261 | D 0.0822 | Q 0.102 | E 0.122 | L 0.112 | A 0.097 | N 0.0979 | H 0.809 | F 0.111 | R 1.36 | P 0.11
chain 5 E6: C 0.0748 | R 0.097 | Q 0.0813 | P 0.0822 | H 0.0877 | V 0.0536 | K 0.131 | D 0.365 | Y 0.0997 | A 0.0933 | M 0.0896 | G 0.168 | N 0.102 | W 0.084 | I 0.0822 | T 0.0942 | S 0.107 | F 0.11 | L 0.0813
chain 5 I2: M 0.624 | F 0.733 | S 1.56 | G 0.956 | A 1.5 | Q 0.385 | D 1.01 | H 0.243 | L 1.29 | P 0.351 | K 0.24 | C 1.27 | R 0.281 | W 0.585 | V 1.54 | E 1.09 | T 1.49 | Y 0.408 | N 0.541
chain 5 N4: S 0.295 | R 0.102 | I 0.116 | W 0.672 | E 0.2 | M 0.111 | V 0.0988 | G 0.445 | D 0.132 | Q 0.117 | K 0.126 | F 0.335 | L 0.146 | P 0.519 | T 0.143 | C 0.206 | A 0.202 | H 0.91 | Y 0.358
chain 5 I3: G 0.962 | D 0.149 | M 1.62 | P 1.18 | N 1.09 | Q 1.11 | C 1.57 | Y 0.236 | E 1.19 | T 0.955 | L 1.02 | V 1.57 | S 0.872 | A 1.33 | H 0.61 | K 0.236 | W 0.281 | F 0.342 | R 0.295
chain 5 F5: A 0.809 | G 0.381 | T 0.694 | H 0.777 | R 0.248 | C 1.01 | Q 0.495 | M 1.14 | S 0.6 | V 0.796 | N 0.446 | D 0.192 | I 0.711 | P 0.546 | L 0.863 | Y 0.516 | E 0.163 | W 0.795 | K 0.173
chain 5 S1: V 0.294 | G 0.517 | N 0.416 | R 0.333 | F 0.276 | L 0.355 | A 0.556 | P 0.141 | T 0.524 | Y 0.424 | H 0.446 | I 0.338 | C 0.188 | Q 0.602 | D 1.53 | K 0.384 | M 0.536 | E 0.709 | W 0.292

Variants of: B2
Assay: % of reporter cells activated (NFAT-GFP), raw
Details: with G2; scale: % of reporter cells activated

Ratio to parent of substitutions, site by site:
chain 5 I2: M 0.88 | S 1.32 | A 1.66 | C 1.06 | H 1.31 | T 1.56 | V 1.18 | N 1.11 | L 1.25 | Q 1.13 | W 1.18 | R 1.01 | D 1.58 | F 1.32 | K 1.16 | E 1.41 | G 0.928 | Y 1.54 | P 1.65
chain 5 F5: H 1.51 | A 1.38 | C 1.4 | D 1.77 | Q 1.24 | S 0.88 | N 0.984 | K 1.36 | R 0.864 | W 1.15 | I 1.06 | L 1.46 | Y 1.62 | T 1.06 | P 1.42 | V 1.42 | E 1.34 | M 1.31 | G 1.23
chain 5 I3: N 1.53 | D 1.26 | G 1.39 | E 1.55 | F 1.19 | T 0.992 | C 1.38 | P 1.44 | V 0.968 | H 1.18 | L 1.34 | M 1.88 | Q 1.03 | K 1.5 | W 1.3 | A 1.42 | S 0.936 | R 0.8
chain 5 E6: Q 1.41 | H 1.36 | L 1.08 | I 1.02 | N 1.39 | K 1.3 | G 1.29 | P 1.53 | Y 1.71 | A 1.9 | D 1.28 | M 1.15 | S 1.01 | F 1.36 | T 1.73 | V 1.7 | R 1.34 | C 1.18 | W 1.31

Variants of: B3
Assay: % of reporter cells activated (NFAT-GFP), raw
Details: with B16; scale: % of reporter cells activated

Ratio to parent of substitutions, site by site:
chain 5 K7: S 0.657 | T 0.665 | N 0.823 | G 1.06 | M 0.921 | W 0.496 | R 0.488 | H 1.21 | Q 1.39 | I 1.41 | V 0.823 | E 1.16 | A 1.29 | F 1.01 | D 0.886 | Y 0.996 | C 1.33 | P 1.02 | L 1.03
chain 5 N4: H 1.26 | A 1.39 | R 0.969 | L 1.48 | F 0.909 | T 1.04 | V 1.14 | P 1.25 | D 1.19 | Y 0.87 | G 1.35 | W 1.13 | M 1.21 | K 1.37 | C 1.2 | E 1.25 | S 1.09 | Q 0.992 | I 1.25
chain 5 I2: L 1.51 | S 1.34 | T 1.34 | V 1.33 | Y 1.3 | N 1.26 | R 0.921 | M 1.11 | P 1.48 | Q 1.21 | K 1.52 | W 1.35
chain 5 S1: A 1.54 | Q 1.28 | R 0.846 | N 1.09 | Y 1.56 | E 1.26 | I 1.35 | H 1.37 | L 1.11 | K 1.38 | V 1.16 | D 1.29 | P 1.3 | W 0.941 | M 1.08 | C 1.57 | G 1.43 | F 1.35 | T 1.36
chain 5 I3: V 1.07 | Q 1.5 | S 1.5 | L 1.28 | A 1.55 | W 1.08 | D 1.13 | Y 1.33 | M 1.4 | N 1.37 | P 2.05 | H 1.38 | T 1.24 | C 1.52 | E 1.3 | K 1.44 | G 1.22 | R 0.807 | F 1.11
chain 5 L8: S 0.65 | Y 1.24 | R 1.28 | Q 1.04 | T 0.787 | F 0.579 | E 0.547 | C 0.996 | V 0.697 | H 1.1 | A 0.921 | M 0.799 | D 0.823 | P 1.36 | K 0.827 | I 0.602 | W 0.689 | G 1.26 | N 0.744

— publication PMC11480844
